Assay results reported in US10363306B2, “Cytokines and neuroantigens for treatment of immune disorders” (East Carolina University, priority 2009, dated 2019).

Columns and labels:
EAE in Lewis rats = assay: Prevention of EAE by pretreatment before encephalitogenic challenge; format: in vivo
[1] = test system: MBP-specific RsL.11 T cell clone; assay: Antigen-specific proliferation of RsL.11 T cell clone with irradiated splenic APC; format: cell-based, rat
Protocol: FIG. 2. Structure-function analysis of the cytokine and NAg domains of IFNβ fusion proteins. (A) Expression supernatants containing designated IFNβ fusion proteins (see Table 2) were added to cultures of BN-GP T cells at designated titrations (x-axis). (B) The IFNβ-EK-NAg-6his or IFNβ-EK-6his fusion genes were inserted into the pCEP4 expression vector (Invitrogen). Inserts were verified by DNA sequencing, and the genes were expressed by transient transfection of HEK293 cells. Independently derived expression systems of IFNβ-EK-NAg-6his or IFNβ-EK-6his (3 each) were compared in the BN-GP T cell anti-proliferative assay. (C) Independently purified preparations (2 each) of each IFN-β fusion protein (IFNβ-NAg from HEK293 cells, IFNβ-NAg from baculovirus, and IFN-β from HEK293 cells) were added at designated concentrations to assess anti-proliferative activity. Two independently purified preparations of the same fusion protein were tested to verify the reliability of activity for each type of protein. The x-axis was based on the exponent of the molar concentration. For example, a concentration of 100 nM was represented as Log [10^−7]=Log10) (10^−7M)=−7 and was plotted by the exponent of −7. For these experiments (A-C), BN-GP T cells were cultured in IL-2. (D) The MBP-specific RsL.11 T cell clone and irradiated splenic APC were cultured with designated concentrations of purified IFNβ-NAg or GPMBP in the presence or absence of the OX6 anti-MHC-II mAb. (E) Five preparations of purified IFNβ-NAg and six preparations of purified IFN-β were tested for antigenic activity in cultures of RsL.11 T cells and irradiated splenic APC.
The RsL.11 MBP-specific clone was a stable, IL-2 dependent line derived from Lewis rats sensitized with rat MBP in CFA (Mannie, M. D., and M. S. Norris. 2001. MHC class-II-restricted antigen presentation by myelin basic protein-specific CD4+ T cells causes prolonged desensitization and outgrowth of CD4-responders. Cell Immunol 212:51-62). The RsL.11T clone was a transformed variant of the RsL.11 clone. […]

[2] = Table 4 Exp. 1 & 2 combined, HEK293-derived, 1 nmole days −21, −14, −7, challenge day 0
[3] = Table 4 Exp. 1, HEK293-derived, 1 nmole days −21, −14, −7, challenge day 0
[4] = Table 4 Exp. 1, HEK293-derived, 1 nmole days −21, −14, −7, challenge day 0, severe = partial or full hindlimb paralysis
[5] = Table 4 Exp. 1, HEK293-derived, 1 nmole in saline days −21, −14, −7, challenge DHFR-NAg in CFA day 0
[6] = Table 4 Exp. 2, HEK293-derived, 1 nmole days −21, −14, −7, challenge day 0
[7] = Table 4 Exp. 2, HEK293-derived, 1 nmole days −21, −14, −7, challenge day 0, severe = partial or full hindlimb paralysis
[8] = Table 4 Exp. 2, HEK293-derived, 1 nmole in saline days −21, −14, −7, challenge DHFR-NAg in CFA day 0
[9] = Table 3, baculovirus-derived, 1 nmole s.c. days −21, −14, −7, challenge day 0, severe = EP or P
[10] = Table 3, baculovirus-derived, 1 nmole s.c. in saline days −21, −14, −7, challenge 50 ug DHFR-NAg in CFA day 0
[11] = Table 5 Exp 1-2 compiled, 1 nmole s.c. days −21, −14, −7 (IFNβ + NAg: separate injections), challenge day 0
[12] = Table 5 Exp 1, 1 nmole s.c. in saline days −21, −14, −7 (IFNβ + NAg: separate injections <0.5 cm apart), challenge DHFR-NAg in CFA day 0
[13] = Table 5 Exp 2, 1 nmole s.c. in saline days −21, −14, −7 (IFNβ + NAg: separate injections <0.5 cm apart), challenge DHFR-NAg in CFA day 0

B1: IFNβ: Rat interferon beta cytokine with enterokinase linker and 6-histidine sequence, no neuroantigen (protein)
chain: IDYKQLQFRQSTSIRTCQKLLRQLNGRLNLSYRTDFKIPMEVMHPSQMEKSYTAFAIQVMLQNVFLVFRSNFSSTGWNETIVESLLDELHQQTELLEIILKEKQEERLTWVTSTTTLGLKSYYWRVQRYLKDKKYNSYAWMVVRAEVFRNFSIILRLNRNFQNGDDDDKGHHHHHH
In the case of B1, the “Incidence of EAE” value (EAE in Lewis rats; [2]) is reported as 8 of 8, the “Incidence of severe EAE” value (EAE in Lewis rats; [2]) is reported as 8 of 8 and the “Mean # days with severe EAE” value (EAE in Lewis rats; [2]) is reported as 3.4 ± 0.8 days. It also gave a Mean cumulative score (EAE in Lewis rats; [2]) of 22.8 ± 4.0, a Mean maximal score (EAE in Lewis rats; [2]) of 2.9 ± 0.4 and a Median cumulative score (EAE in Lewis rats; [2]) of 22.5. For the same molecule, the Median maximal score (EAE in Lewis rats; [2]) was 3.0, the “Mean # days with severe EAE” value (EAE in Lewis rats; [3]) was 3.0 ± 0.4 days and the “Incidence of severe EAE” value (EAE in Lewis rats; [4]) was 4 of 4. For the same molecule, the “Incidence of EAE” value (EAE in Lewis rats; [5]) was 4 of 4, the Mean cumulative score (EAE in Lewis rats; [5]) was 22.0 ± 2.6 and the Mean maximal score (EAE in Lewis rats; [5]) was 3.0 ± 0.0. The Median cumulative score (EAE in Lewis rats; [5]) was 21.3, the Median maximal score (EAE in Lewis rats; [5]) was 3.0 and the “Mean # days with severe EAE” value (EAE in Lewis rats; [6]) was 3.9 ± 0.9 days. The “Incidence of severe EAE” value (EAE in Lewis rats; [7]) was 4 of 4, the “Incidence of EAE” value (EAE in Lewis rats; [8]) was 4 of 4 and the Mean cumulative score (EAE in Lewis rats; [8]) was 23.7 ± 5.3. The Mean maximal score (EAE in Lewis rats; [8]) was 2.8 ± 0.5, the Median cumulative score (EAE in Lewis rats; [8]) was 23.6 and the Median maximal score (EAE in Lewis rats; [8]) was 3.0. The “stimulatory activity (antigen-specific proliferation)” value ([1]; independently purified preparations, RsL.11 T cells and irradiated splenic APC) was “devoid of stimulatory activity”.

B2: IFNβ-NAg: Fusion protein: rat IFNβ, enterokinase linker (GDDDDKG), encephalitogenic 73-87 peptide of guinea pig MBP, C-terminal 6-histidine tag (protein)
chain: IDYKQLQFRQSTSIRTCQKLLRQLNGRLNLSYRTDFKIPMEVMHPSQMEKSYTAFAIQVMLQNVFLVFRSNFSSTGWNETIVESLLDELHQQTELLEIILKEKQEERLTWVTSTTTLGLKSYYWRVQRYLKDKKYNSYAWMVVRAEVFRNFSIILRLNRNFQNGDDDDKGPQKSQRSQDENPVVHHHHHH
In the case of B2, the “Incidence of severe EAE” value (EAE in Lewis rats; [9]) is reported as 4 of 9, the “Mean # days with severe EAE” value (EAE in Lewis rats; [9]) is reported as 1.0 ± 1.3 days and the “Incidence of EAE” value (EAE in Lewis rats; [10]) is reported as 9 of 9. It also gave a Mean cumulative score (EAE in Lewis rats; [10]) of 3.4 ± 2.7, a Mean maximal score (EAE in Lewis rats; [10]) of 1.4 ± 0.9 and a Median cumulative score (EAE in Lewis rats; [10]) of 2.5. For the same molecule, the Median maximal score (EAE in Lewis rats; [10]) was 1.0, the “Incidence of EAE” value (EAE in Lewis rats; [2]) was 8 of 8 and the “Incidence of severe EAE” value (EAE in Lewis rats; [2]) was 4 of 8. For the same molecule, the “Mean # days with severe EAE” value (EAE in Lewis rats; [2]) was 0.8 ± 1.0 days, the Mean cumulative score (EAE in Lewis rats; [2]) was 7.0 ± 5.3 and the Mean maximal score (EAE in Lewis rats; [2]) was 1.5 ± 0.9. For the same molecule, the Median cumulative score (EAE in Lewis rats; [2]) was 5.9, the Median maximal score (EAE in Lewis rats; [2]) was 1.5 and the “Mean # days with severe EAE” value (EAE in Lewis rats; [3]) was 0.6 ± 1.3 days. The “Incidence of severe EAE” value (EAE in Lewis rats; [4]) was 1 of 4, the “Incidence of EAE” value (EAE in Lewis rats; [5]) was 4 of 4 and the Mean cumulative score (EAE in Lewis rats; [5]) was 6.3 ± 6.7. The Mean maximal score (EAE in Lewis rats; [5]) was 1.3 ± 1.2, the Median cumulative score (EAE in Lewis rats; [5]) was 3.9 and the Median maximal score (EAE in Lewis rats; [5]) was 1.0. For the same molecule, the “Mean # days with severe EAE” value (EAE in Lewis rats; [6]) was 1.0 ± 0.7 days, the “Incidence of severe EAE” value (EAE in Lewis rats; [7]) was 3 of 4 and the “Incidence of EAE” value (EAE in Lewis rats; [8]) was 4 of 4. It also gave a Mean cumulative score (EAE in Lewis rats; [8]) of 7.8 ± 4.3, a Mean maximal score (EAE in Lewis rats; [8]) of 1.6 ± 0.8 and a Median cumulative score (EAE in Lewis rats; [8]) of 8.9. The Median maximal score (EAE in Lewis rats; [8]) was 2.0, the “% mean maximal weight loss” value (EAE in Lewis rats; [11]) was 12.6 ± 3.6% and the “Incidence of EAE” value (EAE in Lewis rats; [11]) was 14 of 14. For the same molecule, the “Incidence of severe EAE” value (EAE in Lewis rats; [11]) was 7 of 14, the “Mean # days with severe EAE” value (EAE in Lewis rats; [11]) was 1.0 ± 1.2 days and the Mean cum. score (EAE in Lewis rats; [11]) was 7.6 ± 6.2. For the same molecule, the Mean maximal score (EAE in Lewis rats; [11]) was 1.5 ± 1.1, the Median cum. score (EAE in Lewis rats; [11]) was 5.5 and the Median maximal score (EAE in Lewis rats; [11]) was 1.5. For the same molecule, the “% mean maximal weight loss” value (EAE in Lewis rats; [12]) was 14.8 ± 1.9%, the “Incidence of EAE” value (EAE in Lewis rats; [12]) was 7 of 7 and the “Incidence of severe EAE” value (EAE in Lewis rats; [12]) was 4 of 7. For the same molecule, the “Mean # days with severe EAE” value (EAE in Lewis rats; [12]) was 1.1 ± 1.2 days, the Mean cum. score (EAE in Lewis rats; [12]) was 8.0 ± 6.3 and the Mean maximal score (EAE in Lewis rats; [12]) was 1.5 ± 1.0. The Median cum. score (EAE in Lewis rats; [12]) was 7.0, the Median maximal score (EAE in Lewis rats; [12]) was 2.0 and the “% mean maximal weight loss” value (EAE in Lewis rats; [13]) was 10.5 ± 3.6%. For the same molecule, the “Incidence of EAE” value (EAE in Lewis rats; [13]) was 7 of 7, the “Incidence of severe EAE” value (EAE in Lewis rats; [13]) was 3 of 7 and the “Mean # days with severe EAE” value (EAE in Lewis rats; [13]) was 0.9 ± 1.2 days. It also gave a Mean cum. score (EAE in Lewis rats; [13]) of 7.2 ± 6.4, a Mean maximal score (EAE in Lewis rats; [13]) of 1.5 ± 1.4 and a Median cum. score (EAE in Lewis rats; [13]) of 3.0. The Median maximal score (EAE in Lewis rats; [13]) was 0.5, the “day of disease onset” value (EAE in Lewis rats; baculovirus-derived, pretreatment days −21, −14, −7 (not shown)) was “did not significantly modulate” and the “antigenic potency relative to GPMBP” value ([1]; at low concentrations, concentration eliciting half-maximal response) was “more potent than intact guinea pig myelin basic protein”. For the same molecule, the peak proliferative response ([1]; compared with GPMBP) was “substantially less than that stimulated by GPMBP”.
